# Measurements taken from patent US20020081614, “Functional genomics using zinc finger proteins” (Sangamo BioSciences, Inc., published 2002).
# T1: VF471A-VP16 (pcV-VF471A) (synthetic construct)
# T1 chain: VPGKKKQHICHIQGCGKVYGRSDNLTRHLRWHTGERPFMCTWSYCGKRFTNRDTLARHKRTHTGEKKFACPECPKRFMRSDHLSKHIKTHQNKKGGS
# Legend:
# [1] = system: M6-1878S ZFP-VP16 (pcV-M6-1878S) (synthetic construct); assay: cell_activity; details: 293 cells; reporter pGLPVFH, table title endogenous VEGF; location -536
# [2] = system: M6-2009S ZFP-VP16 (pcV-M6-2009S, also written M6-2009A) (synthetic construct); assay: cell_activity; details: 293 cells; reporter pGLPVFH, table title endogenous VEGF; location -363
# [3] = system: M6-120S ZFP-VP16 (pcV-M6-120S) (synthetic construct); assay: cell_activity; details: 293 cells; reporter pGLPVFH, table title endogenous VEGF; location -2243
# [4] = system: M6-111S ZFP-KRAB (pcK-M6-111S, printed pcK-M6-11S) (synthetic construct); assay: cell_activity; details: cotransfected luciferase reporter; about 40% repression of endogenous VEGF
# [5] = system: M6-111S ZFP-VP16 (pcV-M6-111S) (synthetic construct); assay: cell_activity; details: 293 cells; target printed ATGGGGGTC in Table 1 but ATGGGGGTG in p236 and p241
# VF471A-VP16 (pcV-VF471A) = biological target: T1, VF471A-VP16 (pcV-VF471A); assay: cell_activity; luciferase reporter in 293 cells, vs pcV-RAN
# Protocol: All plasmid DNA was prepared using Qiagen plasmid purification kits. The human embryonic kidney 293 cells were seeded into each well of a 6-well plate with a density to reach approximately 70% confluence the next day. Cells were co-transfected with 50 ng effector DNA (ZFP-expression plasmid), 900 ng reporter DNA and 100 ng pCMV-LacZ DNA using either Lipofectamine (GIBCO-BRL, MD) or GenePORTER (Gene Therapy Systems Inc, CA) transfection reagent. The co-expressed β-galactosidase activity was used a control to normalize the luciferase activity. Cell lysates were harvested 40 to 48 hours after transfection. Luciferase assays were performed using the Dual-Light Luciferase and β-galactosidase Reporter Assay System (Tropix, MA).
# When the VP16 domain was replaced with a peptide, which has no transcription regulation activity, this zinc finger protein (pcV-VF471A-cat) lost its activity of trans-activating the luciferase gene. […] Therefore, the DNA binding domain (VF471A ZFP) combined with the regulation domain (VP16) in this example were able to turn on the gene at an appropriate target sites.
molecule,measurement,setting,value
GAGTGTGTG (double strand) [M6-1878S site],activity (fold activation),[1],4.2
GAAGGGGGC (double strand) [M6-2009S site],activity (fold activation),[2],4.5
GGGGGTGCC (double strand) [M6-120S site],activity (fold activation),[3],13.8
ATGGGGGTG (double strand) [M6-111S site],activity,[4],80 % repression
same,activity (fold activation),[5],4.1
reporter with three tandem M6-1892S sites (pGLP-VF471x3) (dsDNA) DNA 1: GGGGTTGAG DNA 2: CTCAACCCC,activity,VF471A-VP16 (pcV-VF471A),8 fold activation
